For this assay, the target named is T1, Full-length wild-type rat TRPV2 (transient receptor potential vanilloid 2) (rat), Q9WUD2.
T1 chain: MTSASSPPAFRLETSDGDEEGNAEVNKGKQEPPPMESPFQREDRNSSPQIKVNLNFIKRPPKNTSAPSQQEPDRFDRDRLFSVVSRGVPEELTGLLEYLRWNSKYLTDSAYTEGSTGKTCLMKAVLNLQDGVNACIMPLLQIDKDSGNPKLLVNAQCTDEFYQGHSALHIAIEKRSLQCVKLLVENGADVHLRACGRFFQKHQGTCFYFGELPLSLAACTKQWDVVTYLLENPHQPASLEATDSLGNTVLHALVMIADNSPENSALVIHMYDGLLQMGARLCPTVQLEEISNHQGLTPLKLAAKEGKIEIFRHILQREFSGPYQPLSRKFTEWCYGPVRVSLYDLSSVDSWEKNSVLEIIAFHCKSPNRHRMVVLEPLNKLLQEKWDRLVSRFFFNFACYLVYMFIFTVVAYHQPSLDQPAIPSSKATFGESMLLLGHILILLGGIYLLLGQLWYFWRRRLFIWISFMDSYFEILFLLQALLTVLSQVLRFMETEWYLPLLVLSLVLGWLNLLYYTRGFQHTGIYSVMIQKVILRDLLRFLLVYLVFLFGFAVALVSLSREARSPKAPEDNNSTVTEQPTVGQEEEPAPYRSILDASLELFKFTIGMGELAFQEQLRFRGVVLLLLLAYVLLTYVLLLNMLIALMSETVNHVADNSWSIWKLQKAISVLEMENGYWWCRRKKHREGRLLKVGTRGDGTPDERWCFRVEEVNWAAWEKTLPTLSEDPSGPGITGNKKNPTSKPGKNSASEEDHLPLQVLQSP
Nature of the assay: cryo-EM structure. The conditions noted are these: remark: other sources report otherwise.

The stoichiometry N is a count of units in the complex or per binding partner.

B1: Full-length wild-type rat TRPV2 (transient receptor potential vanilloid 2), Q9WUD2 1-761 (natural protein)
chain: T1 chain
On to B1, for which the stoichiometry N turned out to be 4.

Values taken from publication doi:10.1101/2020.08.10.242008.
